Target: YmgB (purified, biotinylated) (Escherichia coli) (UniProt P75993)
Experiment: BLI; biotinylated YmgB or YmgB^R74G immobilised on streptavidin biosensors, SpoT^TGS-Helical 2-50 μM as analyte; Blitz, 25 °C; 50 mM Tris-HCl pH 8.0, 500 mM NaCl, 500 mM KCl, 2 mM β-mercaptoethanol, 2% glycerol, BSA 1 mg/ml; KD from steady-state responses, one site model

UniProt P75993, sequence (P75993 whole entry): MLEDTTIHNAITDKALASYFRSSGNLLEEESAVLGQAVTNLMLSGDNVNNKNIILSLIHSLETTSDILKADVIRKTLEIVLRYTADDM

Kd: 8.73 µM
Substance: SpoT^TGS-Helical (purified) (domain or fragment)
